Measurements as given in publication PMC7593272.

Biological target: T1, response regulator Awo_c25920 (Reg) (Acetobacterium woodii) (UniProt H6LEQ6)
T1 sequence: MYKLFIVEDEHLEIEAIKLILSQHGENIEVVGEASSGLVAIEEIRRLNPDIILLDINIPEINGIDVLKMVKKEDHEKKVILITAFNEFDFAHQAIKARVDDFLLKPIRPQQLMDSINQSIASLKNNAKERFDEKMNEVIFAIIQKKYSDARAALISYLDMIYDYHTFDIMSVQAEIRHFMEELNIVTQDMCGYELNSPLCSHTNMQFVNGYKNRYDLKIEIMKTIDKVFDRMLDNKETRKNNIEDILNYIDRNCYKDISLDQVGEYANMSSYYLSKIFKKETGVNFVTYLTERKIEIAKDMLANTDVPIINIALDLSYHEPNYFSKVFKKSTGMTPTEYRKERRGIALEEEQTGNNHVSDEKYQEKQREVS
Assay: EMSA
Conditions: EMSA in 12 ul buffer B: 50 mM Tris-HCl, 125 mM NaCl, 10 mM glycerol, 5 mM MgCl2, pH 7.8, 6% native PAGE in 1X TAE at 4 C, ethidium bromide stain

CATAAAACTAAAAAAATAGTCAAAAAAGCAGAACAGGAAAACCTTAGGGTTAACCTGTTCTTTTTATACGTTAGAATTAGAAATGTGATTTTAAAGTACAGGTATTAGACAAAATATTACACTATGTTTTTATGGATAGAGACAAAAAACAGCGTTAGTAAAAGGTTTTCAAGGTGGTTTTAAGAAACAAACAATAATTTTATAAGAATAGCACAAGTAATTACCATAGCCTTTGAATTAAAATATAGTTAGTTCAGTAATAAAATCTTGTAATTAAGGAGGATAGAGCTT (double strand) [291 bp intergenic region upstream of pduA]
binding: binds
